The values below come from patent US20220089695A1.

For assay [1], the target named is Liver and lymph node sinusoidal endothelial cell C-type lectin expressed on cells (human) (UniProt Q6UXB4).
Assay [2] deals with Liver/lymph node-specific intercellular adhesion molecule-3-grabbing integrin expressed on cells (human) (UniProt Q9H2X3).
Assay [3] has as its target Dendritic cell-specific intercellular adhesion molecule-3-grabbing nonintegrin expressed on cells (human) (UniProt Q9NNX6).
For assay [4], the target named is C-type lectin domain family 10 member A expressed on cells (human) (UniProt Q8IUN9).
Assay [5] deals with Asialoglycoprotein Receptor 1 expressed on cells (human) (UniProt P07306).
Assay [6] has as its target Tweety Family Member 2 expressed on cells (human) (UniProt Q9BSA4).
The target in assay [7] is SARS-CoV-2 Spike (S) protein, recombinant, construct not stated at the place (SARS-CoV-2) (UniProt P0DTC2).

Chain of Tweety Family Member 2 expressed on cells (human) (Q9BSA4 whole entry): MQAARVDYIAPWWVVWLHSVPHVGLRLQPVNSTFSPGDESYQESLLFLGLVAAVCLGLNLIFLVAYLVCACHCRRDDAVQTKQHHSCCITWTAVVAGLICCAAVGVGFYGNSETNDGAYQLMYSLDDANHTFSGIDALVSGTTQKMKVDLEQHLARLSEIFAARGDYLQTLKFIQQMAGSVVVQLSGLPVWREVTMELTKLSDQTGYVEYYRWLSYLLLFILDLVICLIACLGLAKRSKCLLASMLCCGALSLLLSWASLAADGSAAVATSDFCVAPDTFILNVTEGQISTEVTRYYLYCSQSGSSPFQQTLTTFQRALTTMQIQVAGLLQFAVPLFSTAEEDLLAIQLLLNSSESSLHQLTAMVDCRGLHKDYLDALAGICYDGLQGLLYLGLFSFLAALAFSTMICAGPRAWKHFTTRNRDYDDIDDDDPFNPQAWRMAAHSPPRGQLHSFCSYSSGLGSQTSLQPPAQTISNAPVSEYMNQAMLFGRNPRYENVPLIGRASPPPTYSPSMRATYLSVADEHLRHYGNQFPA
Chain of C-type lectin domain family 10 member A expressed on cells (human) (Q8IUN9 whole entry, the tested form may be a part): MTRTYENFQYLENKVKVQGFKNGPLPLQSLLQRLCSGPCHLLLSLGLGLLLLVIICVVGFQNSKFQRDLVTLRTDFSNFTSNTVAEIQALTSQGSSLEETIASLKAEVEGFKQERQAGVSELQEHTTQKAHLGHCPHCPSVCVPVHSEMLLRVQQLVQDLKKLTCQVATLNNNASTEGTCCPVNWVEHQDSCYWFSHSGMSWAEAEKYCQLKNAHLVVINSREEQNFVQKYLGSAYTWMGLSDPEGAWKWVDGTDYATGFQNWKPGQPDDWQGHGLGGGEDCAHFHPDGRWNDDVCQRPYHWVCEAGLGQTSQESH
Chain of Liver/lymph node-specific intercellular adhesion molecule-3-grabbing integrin expressed on cells (human) (Q9H2X3 whole entry): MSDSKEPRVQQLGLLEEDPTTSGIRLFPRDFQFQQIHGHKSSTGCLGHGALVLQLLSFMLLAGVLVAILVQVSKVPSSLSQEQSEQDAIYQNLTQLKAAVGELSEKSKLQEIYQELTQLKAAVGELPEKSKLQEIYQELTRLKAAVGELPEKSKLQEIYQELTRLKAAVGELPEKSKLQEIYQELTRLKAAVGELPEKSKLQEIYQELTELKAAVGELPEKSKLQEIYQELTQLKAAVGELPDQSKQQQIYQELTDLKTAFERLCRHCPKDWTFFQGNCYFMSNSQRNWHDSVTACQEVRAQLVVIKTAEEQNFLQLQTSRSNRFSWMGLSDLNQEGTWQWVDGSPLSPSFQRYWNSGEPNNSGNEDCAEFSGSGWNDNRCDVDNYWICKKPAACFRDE
Chain of Asialoglycoprotein Receptor 1 expressed on cells (human) (P07306 whole entry): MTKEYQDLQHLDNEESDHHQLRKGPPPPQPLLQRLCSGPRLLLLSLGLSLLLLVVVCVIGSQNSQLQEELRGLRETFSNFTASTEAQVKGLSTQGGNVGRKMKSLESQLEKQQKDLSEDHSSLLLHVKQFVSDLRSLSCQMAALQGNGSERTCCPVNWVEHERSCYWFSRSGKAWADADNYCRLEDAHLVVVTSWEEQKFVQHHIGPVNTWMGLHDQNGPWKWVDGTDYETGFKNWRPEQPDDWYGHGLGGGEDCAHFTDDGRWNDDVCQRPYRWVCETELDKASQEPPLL
Chain of Dendritic cell-specific intercellular adhesion molecule-3-grabbing nonintegrin expressed on cells (human) (Q9NNX6 whole entry, the tested form may be a part): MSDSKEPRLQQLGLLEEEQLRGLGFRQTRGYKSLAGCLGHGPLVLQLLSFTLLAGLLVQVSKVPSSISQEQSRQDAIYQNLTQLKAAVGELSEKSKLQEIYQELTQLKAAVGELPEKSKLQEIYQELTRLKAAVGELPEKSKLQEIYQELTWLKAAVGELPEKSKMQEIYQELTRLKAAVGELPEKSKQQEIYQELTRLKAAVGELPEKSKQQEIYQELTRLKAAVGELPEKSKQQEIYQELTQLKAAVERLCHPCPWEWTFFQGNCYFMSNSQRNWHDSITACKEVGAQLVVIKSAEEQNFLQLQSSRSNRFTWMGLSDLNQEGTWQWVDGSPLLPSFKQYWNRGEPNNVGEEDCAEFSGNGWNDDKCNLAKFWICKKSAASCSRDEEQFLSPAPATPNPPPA
Chain of Liver and lymph node sinusoidal endothelial cell C-type lectin expressed on cells (human) (Q6UXB4 whole entry): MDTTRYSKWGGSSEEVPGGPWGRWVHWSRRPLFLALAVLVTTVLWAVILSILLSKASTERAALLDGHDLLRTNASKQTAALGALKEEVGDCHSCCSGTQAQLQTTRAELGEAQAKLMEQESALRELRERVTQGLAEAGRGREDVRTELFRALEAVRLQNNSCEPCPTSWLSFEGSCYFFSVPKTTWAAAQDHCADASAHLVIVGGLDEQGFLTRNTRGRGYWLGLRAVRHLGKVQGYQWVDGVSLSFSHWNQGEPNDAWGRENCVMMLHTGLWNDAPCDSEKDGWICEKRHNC

As for “SARS-CoV-2 S protein displayed on lentiviral (HIV-GFP) pseudovirus (from UniProt P0DTC2 14-1273) (other; other documents disagree on this pair)”, the cells in the Anti-SARS-CoV-2 S protein (APC) gate in assay [1] stood at 1.7%; in assay [2], 31.7%; in assay [3], 20.8%.

Consider “SARS-CoV-2 S protein displayed on lentiviral (HIV-GFP) pseudovirus (from UniProt P0DTC2 14-1273)”, for which the cells in the Anti-SARS-CoV-2 S protein (APC) gate in assay [4] stood at 3.2%; in assay [5] it was 47.6%; in assay [6] it was 1.61%.

ACE2-Fc + L-SIGN-Fc + ASGR1-Fc: the blocking of S protein binding (heat-map cell) in assay [7] stood at 33.7%.

Regarding Fc Control, the blocking of S protein binding (heat-map cell) in assay [7] was found to be 0%.
